Test results from the supplement of paper PMC9732359.
± gives the uncertainty stated by the source.

Test: protein stability index of a GFP-peptide fusion (yeast GPS) (PSI 1-4); higher = more stable; sorted into four equal gates, so the index is relative within each strain
Summary of the method: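 Plasmids isolated from each sorting gate were PCR-amplified and Illumina-sequenced, and barcodes assigned the reads to strains. The gates, four of equal size, were set by GFP/Cherry fluorescence ratio on mid-log cultures in leucine-free medium. These cultures were yeast carrying a pooled library of tiled 17-residue yeast protein peptides fused downstream of GFP on a plasmid that also expresses Cherry. The protein stability index is the sum of every gate's read frequency times its gate number.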

VVLSFSGLNADSRILIE [PRE6]
protein stability index (doa10∆): 2.87 ± 0.15
protein stability index (pdr5∆): 3.26 ± 0.2
protein stability index (san1∆): 3.19 ± 0.072
protein stability index (ubr1∆): 3.3 ± 0.13

HTQDIIGGMRVDENGDP [RET1]
protein stability index (doa10∆): 3.2 ± 0.084
protein stability index (pdr5∆): 3.32 ± 0.073
protein stability index (san1∆): 3.17 ± 0.055
protein stability index (ubr1∆): 3.37 ± 0.054

TTKMWPTNCPLRQFKTC [BRR2]
protein stability index (doa10∆): 2.41 ± 0.093
protein stability index (pdr5∆): 2.31 ± 0.095
protein stability index (san1∆): 2.01 ± 0.082
protein stability index (ubr1∆): 2.34 ± 0.086

SEGFEPTFSTHAQLLLS [PRP8]
protein stability index (doa10∆): 1.96 ± 0.038
protein stability index (pdr5∆): 2.08 ± 0.037
protein stability index (san1∆): 1.66 ± 0.048
protein stability index (ubr1∆): 1.97 ± 0.034

RTSTRGRGRGRGRGRGR [SNF2]
protein stability index (doa10∆): 3.41 ± 0.11
protein stability index (pdr5∆): 3.17 ± 0.12
protein stability index (san1∆): 2.86 ± 0.098
protein stability index (ubr1∆): 3.08 ± 0.15

DDGDDEDLLECLDRCKE [MTR3]
protein stability index (doa10∆): 2.57 ± 0.097
protein stability index (pdr5∆): 3.08 ± 0.084
protein stability index (san1∆): 2.87 ± 0.085
protein stability index (ubr1∆): 2.77 ± 0.11

LEQREQNENLPSDKSDS [SSN2]
protein stability index (doa10∆): 3.16 ± 0.07
protein stability index (pdr5∆): 3.09 ± 0.071
protein stability index (san1∆): 3.04 ± 0.057
protein stability index (ubr1∆): 3.12 ± 0.056

RLQFAQGSVRRLTVSAR [QCR2]
protein stability index (doa10∆): 1.33 ± 0.075
protein stability index (pdr5∆): 1.39 ± 0.13
protein stability index (san1∆): 1.77 ± 0.27
protein stability index (ubr1∆): 1.14 ± 0.073

DSIYTKPVKVALIFIFF [YJL039C/NUP192]
protein stability index (doa10∆): 1.69 ± 0.039
protein stability index (pdr5∆): 1.68 ± 0.033
protein stability index (san1∆): 1.5 ± 0.058
protein stability index (ubr1∆): 1.68 ± 0.023

KTRNPLTHSTPKNFGIG [RPL8A]
protein stability index (doa10∆): 3.02 ± 0.084
protein stability index (pdr5∆): 2.9 ± 0.058
protein stability index (san1∆): 2.95 ± 0.046
protein stability index (ubr1∆): 3.07 ± 0.054

SNASRRKLINYTKKHLS [RPN4]
protein stability index (doa10∆): 1.73 ± 0.071
protein stability index (pdr5∆): 1.27 ± 0.056
protein stability index (san1∆): 1.56 ± 0.097
protein stability index (ubr1∆): 1.34 ± 0.042

EVLLAGFGRKGKAKGDI [RPS23A]
protein stability index (doa10∆): 3.41 ± 0.099
protein stability index (pdr5∆): 3.24 ± 0.093
protein stability index (san1∆): 3.41 ± 0.045
protein stability index (ubr1∆): 3.22 ± 0.071

YLESLFAKQVDVQLERV [IRR1]
protein stability index (doa10∆): 2.49 ± 0.095
protein stability index (pdr5∆): 2.19 ± 0.074
protein stability index (san1∆): 2.36 ± 0.12
protein stability index (ubr1∆): 2.5 ± 0.051

HELSRAELEELEEFEFK [SMD2]
protein stability index (doa10∆): 3.26 ± 0.072
protein stability index (pdr5∆): 3.3 ± 0.071
protein stability index (san1∆): 3.42 ± 0.059
protein stability index (ubr1∆): 3.45 ± 0.055

YQDIEGGFEDVEEYTWS [RPB2]
protein stability index (doa10∆): 3.44 ± 0.14
protein stability index (pdr5∆): 3.29 ± 0.11
protein stability index (san1∆): 3.49 ± 0.066
protein stability index (ubr1∆): 3.44 ± 0.099

QFTKVIDEPIKSIMDGI [FAS1]
protein stability index (doa10∆): 1.86 ± 0.047
protein stability index (pdr5∆): 2.27 ± 0.078
protein stability index (san1∆): 2.54 ± 0.16
protein stability index (ubr1∆): 1.49 ± 0.072

QEMIEISNVIKPNQTIM [SRP54]
protein stability index (doa10∆): 2.62 ± 0.23
protein stability index (pdr5∆): 2.21 ± 0.079
protein stability index (ubr1∆): 1.96 ± 0.1

VEKLGKKMEARGQSIWV [RPN9]
protein stability index (ubr1∆): 1.51 ± 0.14

QLKWAQNTIDDTEMKMK [YIL149C/MLP2]
protein stability index (doa10∆): 2.15 ± 0.046
protein stability index (pdr5∆): 2.88 ± 0.056
protein stability index (san1∆): 2.71 ± 0.059
protein stability index (ubr1∆): 2.74 ± 0.059

FNTPFANTGGQDKIELS [SNF2]
protein stability index (doa10∆): 1.89 ± 0.18
protein stability index (san1∆): 1.55 ± 0.2
protein stability index (ubr1∆): 1.87 ± 0.2

EKDAKINKLMEKDFQVN [SIR4]
protein stability index (doa10∆): 3.22 ± 0.067
protein stability index (pdr5∆): 3.44 ± 0.07
protein stability index (san1∆): 3.3 ± 0.07
protein stability index (ubr1∆): 3.47 ± 0.055

MSGTTKRLNGKRKYLDI [SSN2]
protein stability index (ubr1∆): 3.55 ± 0.12

VTKETVHPRKSYKMNSS [PRP8]
protein stability index (doa10∆): 3.03 ± 0.11
protein stability index (pdr5∆): 3.02 ± 0.086
protein stability index (san1∆): 2.96 ± 0.048
protein stability index (ubr1∆): 2.9 ± 0.065

FESSSSLPFLLRHMPLA [SSN2]
protein stability index (doa10∆): 2.17 ± 0.16
protein stability index (pdr5∆): 1.61 ± 0.17
protein stability index (san1∆): 2.76 ± 0.18
protein stability index (ubr1∆): 1.48 ± 0.11

GQGEQVDDVLETISAIE [RPN1]
protein stability index (doa10∆): 3.4 ± 0.27
protein stability index (pdr5∆): 3.05 ± 0.18
protein stability index (san1∆): 2.69 ± 0.19
protein stability index (ubr1∆): 2.91 ± 0.19

SKNCYLSEATESDLYKL [RPB2]
protein stability index (doa10∆): 3.02 ± 0.12
protein stability index (pdr5∆): 3.22 ± 0.14
protein stability index (san1∆): 2.9 ± 0.17
protein stability index (ubr1∆): 2.75 ± 0.093

GVITVHNVFSKEQTIQL [RPN14]
protein stability index (doa10∆): 2.57 ± 0.14
protein stability index (pdr5∆): 2.63 ± 0.19
protein stability index (san1∆): 2.95 ± 0.079
protein stability index (ubr1∆): 3.12 ± 0.14

DTGTLDTKSVVGLVMFS [RPN2]
protein stability index (doa10∆): 2.67 ± 0.083
protein stability index (pdr5∆): 2.66 ± 0.084
protein stability index (san1∆): 2.91 ± 0.075
protein stability index (ubr1∆): 2.42 ± 0.069

VRSLPKEEQPKQIIVTR [PRP8]
protein stability index (doa10∆): 2.38 ± 0.1
protein stability index (pdr5∆): 2.09 ± 0.25
protein stability index (san1∆): 2.21 ± 0.12
protein stability index (ubr1∆): 1.98 ± 0.072

KFFQKKIHLYEKKLEDY [YGL172W/NUP49]
protein stability index (doa10∆): 2.83 ± 0.093
protein stability index (pdr5∆): 2.75 ± 0.089
protein stability index (san1∆): 2.71 ± 0.071
protein stability index (ubr1∆): 2.94 ± 0.089

KFENDELAESTTTKIID [LRP1]
protein stability index (doa10∆): 2.04 ± 0.13
protein stability index (pdr5∆): 2.47 ± 0.12
protein stability index (san1∆): 2.23 ± 0.086
protein stability index (ubr1∆): 2.27 ± 0.053

FKCQEKDKGVYVVTSDE [SIR2]
protein stability index (doa10∆): 2.94 ± 0.076
protein stability index (pdr5∆): 3.08 ± 0.085
protein stability index (san1∆): 3.27 ± 0.072
protein stability index (ubr1∆): 3.34 ± 0.054

LERIVQIMQNPTHYKIP [RPS18A]
protein stability index (doa10∆): 2.61 ± 0.1
protein stability index (pdr5∆): 3.1 ± 0.11
protein stability index (san1∆): 2.9 ± 0.065
protein stability index (ubr1∆): 2.74 ± 0.12

NNPANNTNNNNSTGHSS [SWI1]
protein stability index (doa10∆): 2.58 ± 0.036
protein stability index (pdr5∆): 2.15 ± 0.035
protein stability index (san1∆): 2.59 ± 0.034
protein stability index (ubr1∆): 2.12 ± 0.036

PGVRVSGEDVIIGKTTP [RPB2]
protein stability index (doa10∆): 3.36 ± 0.13
protein stability index (pdr5∆): 3.41 ± 0.16
protein stability index (san1∆): 3.61 ± 0.078
protein stability index (ubr1∆): 3.45 ± 0.073

TVTNSKFRSSILRKSFD [RPN2]
protein stability index (doa10∆): 2.88 ± 0.1
protein stability index (pdr5∆): 3.07 ± 0.091
protein stability index (san1∆): 2.66 ± 0.094
protein stability index (ubr1∆): 3.31 ± 0.091

EVDSASDFISKLEYPHT [RPN3]
protein stability index (doa10∆): 2.96 ± 0.087
protein stability index (pdr5∆): 3.09 ± 0.087
protein stability index (san1∆): 2.93 ± 0.075
protein stability index (ubr1∆): 3.02 ± 0.079

KKEENETISNVAKTAPN [SNF2]
protein stability index (doa10∆): 2.86 ± 0.072
protein stability index (pdr5∆): 3.03 ± 0.065
protein stability index (san1∆): 2.52 ± 0.1
protein stability index (ubr1∆): 2.94 ± 0.047

YSLIRETNGYDPFSIYG [SNF5]
protein stability index (doa10∆): 1.23 ± 0.056
protein stability index (pdr5∆): 1.31 ± 0.088
protein stability index (san1∆): 1.15 ± 0.18
protein stability index (ubr1∆): 1.06 ± 0.084

EHKPVSPDKIGTFTADY [SSN2]
protein stability index (doa10∆): 2.98 ± 0.071
protein stability index (pdr5∆): 3.15 ± 0.051
protein stability index (san1∆): 2.9 ± 0.058
protein stability index (ubr1∆): 3.09 ± 0.048

TKLRAFVYNKVNETEAI [YGR119C/NUP57]
protein stability index (doa10∆): 2.3 ± 0.084
protein stability index (pdr5∆): 2.69 ± 0.064
protein stability index (san1∆): 2.68 ± 0.061
protein stability index (ubr1∆): 2.59 ± 0.059

LKDSKDFDESLKYLDDL [RPN9]
protein stability index (doa10∆): 3.02 ± 0.21
protein stability index (pdr5∆): 3.21 ± 0.14
protein stability index (ubr1∆): 2.86 ± 0.17

IAAGTYGKVYKAKRQIN [SSN3]
protein stability index (doa10∆): 1.68 ± 0.061
protein stability index (pdr5∆): 2.03 ± 0.043
protein stability index (san1∆): 2.24 ± 0.068
protein stability index (ubr1∆): 2.29 ± 0.048

WMLSICVEWRLPEIAKE [YJR042W/NUP85]
protein stability index (doa10∆): 1.2 ± 0.08
protein stability index (pdr5∆): 1.37 ± 0.05
protein stability index (san1∆): 1.51 ± 0.11
protein stability index (ubr1∆): 1.67 ± 0.061

DLRIRIKLDIVVGQNQL [SNF5]
protein stability index (doa10∆): 1.38 ± 0.088
protein stability index (pdr5∆): 1.38 ± 0.086
protein stability index (san1∆): 1.67 ± 0.1
protein stability index (ubr1∆): 1.75 ± 0.071

DAAAEKRNGDEVYTLVD [ARP7]
protein stability index (doa10∆): 3.28 ± 0.074
protein stability index (pdr5∆): 3.35 ± 0.063
protein stability index (san1∆): 3.42 ± 0.046
protein stability index (ubr1∆): 3.06 ± 0.056

SITTGNDNENIVNNDLP [MED2]
protein stability index (doa10∆): 2.79 ± 0.051
protein stability index (pdr5∆): 2.78 ± 0.052
protein stability index (san1∆): 2.57 ± 0.054
protein stability index (ubr1∆): 2.87 ± 0.05

LLALRERRMQVTAEDFK [RPT2]
protein stability index (doa10∆): 2.79 ± 0.13
protein stability index (pdr5∆): 2.8 ± 0.17
protein stability index (san1∆): 2.89 ± 0.11

EEIVVVASADYESQTFS [PRP8]
protein stability index (doa10∆): 3.14 ± 0.069
protein stability index (pdr5∆): 3.5 ± 0.095
protein stability index (san1∆): 3.24 ± 0.054
protein stability index (ubr1∆): 3.3 ± 0.057

KAPNAVVITFEKEDHTL [RPB11]
protein stability index (doa10∆): 1.26 ± 0.077
protein stability index (pdr5∆): 2.7 ± 0.12
protein stability index (san1∆): 2.19 ± 0.091
protein stability index (ubr1∆): 1.97 ± 0.076

NNNNTIDESMPDTAIDS [GRR1]
protein stability index (doa10∆): 2.78 ± 0.061
protein stability index (pdr5∆): 3.02 ± 0.052
protein stability index (san1∆): 2.81 ± 0.061
protein stability index (ubr1∆): 3 ± 0.044
